Changes are numbered by the printed parent chain. Names may count otherwise.
B1: his6-tagged WT scaffolding protein of bacteriophage P22 (gp8) (natural protein, UniProt P26748 1-303, looked up)
chain: MEPTTEIQATEDLTLSGDHAAASADSLVVDNANDNAGQEEGFEIVLKDDETAPKQDPAKNAEFARRRIERKRQRELEQQMEAVKRGELPESLRVNPDLPPQPDINAYLSEEGLAKYDYDNSRALAAFNAANTEWLMKAQDARSNAVAEQGRKTQEFTQQSAQYVEAARKHYDAAEKLNIPDYQEKEDAFMQLVPPAVGADIMRLFPEKSAALMYHLGANPEKARQLLAMDGQSALIELTRLSERLTLKPRGKQISSAPPADQPITGDVSAANKDAIRKQMDAAASKGDVETYRKLKAKLKGIR
B2: his6-tagged L245C scaffolding protein of bacteriophage P22 (natural protein, UniProt P26748 1-303, looked up)
chain: B1 chain with L245C

How the values were obtained:
[1] = target: bacteriophage P22 coat protein monomers (WT) (bacteriophage P22, UniProt P26747 1-430); assay: weak affinity chromatography
[2] = target: empty procapsid shells of bacteriophage P22 (WT coat protein) (bacteriophage P22, UniProt P26747 1-430); assay: co-sedimentation

Row | Binder | binding result [1] | binding result [2]
1 | B1 | binds | binds
2 | B2 | – | binds
